Reference: patent US20260201347A1, “ARTIFICIAL BIFUNCTIONAL ENZYME COMPRISING A MYELOPEROXIDASE ACTIVITY AND A GLUCOSE OXIDASE ACTIVITY AND APPLICATIONS THEREOF” (UNIVERSITÉ DE BORDEAUX, priority 2022, published 2026)
Substitutions are numbered along the chain they refer to. Values joined by “and” are separate entries in the source; they are usually repeats but may differ in a detail not shown here. Equal entries are not always repeated.

Experiments:
Assay type in all cases: biochemical, Rhodopirellula baltica / Penicillium amagasakiens
[1] = substrate: OC[C@H]1OC(O)[C@H](O)[C@@H](O)[C@@H]1O; experiment: Coupled active sites, HOCl production from glucose, APF assay (Table 9), linker LEKREAEA; conditions: other: trimer; fixed NaCl 20 mM, pH7.5; pH 7.5
Description: (§1) Each experiment was performed in triplicate.
(§2) The activity of the two active sites was then assessed in conjunction to each other (FIG. 1).
(§3) Briefly, the aim was to measure the production of HOCl from glucose and NaCl as respective substrates of the enzymes, using the APF probe. Two types of kinetics were performed: • i) kinetics at various concentrations of glucose and a fixed concentration of NaCl, and • ii) kinetics at various concentration of NaCl and a fixed concentration of glucose.

[2] = substrate: OC[C@H]1OC(O)[C@H](O)[C@@H](O)[C@@H]1O; experiment: Coupled active sites, HOCl production from glucose, APF assay (Table 9), linker LGKRGAGA; conditions: fixed NaCl 20 mM, pH7.5, pH 7.5
Description: as §1, §2, §3

[3] = substrate: OC[C@H]1OC(O)[C@H](O)[C@@H](O)[C@@H]1O; experiment: Coupled active sites, HOCl production from glucose, all other chimeras; conditions: glucose as substrate, pH 7.5
Description: as §1, §2, §3

[4] = substrate: OC[C@H]1OC(O)[C@H](O)[C@@H](O)[C@@H]1O; experiment: Coupled active sites, HOCl production from glucose, APF assay (Table 9), linker LEKREAEALEKREAEA; conditions: fixed NaCl 20 mM, pH7.5, pH 7.5
Description: as §1, §2, §3

B1: RbMPO-LEKREAEA-GOx chimera (Rhodopirellula baltica myeloperoxidase, SEQ ID NO: 10; linker SEQ ID NO: 7; Penicillium amagasakiens glucose oxidase, SEQ ID NO: … (protein)
chain: MLFWSKRTRKHPGRKRRRLRSEQLESRQLLAADFGGYRHNIYDAEDVNDDGRVSAIDALLVINAMTSETSRDENVFTDVNGDGRRSALDALRVINRIERGDVFPIDTSGDEDLNTLLPEMPSEVRSIDGSGNNPNDHLWGSVGQRLIRMAPAAYGDGISTLAGANRPSAREVSNVLSAMNTSQVLNDRGLSAFVYVWGQFIDHDLGLTESDEHGEAIDISVPEGDLWFDPMGSGEAVIPMTRTPIADGTGTSVGNPAQQFNQITAFIDGSMVYGSDAATAERLRTFAGGRLAISDNGLLPMDESGMVIAGDVRASENVGLTAIQTLFVREHNRLADEIFAADPEATDEEIYQRARLVVASLIQSITYNEFLPALLGQRAMDSYRGYDASVNPGIANEFSTAAFRLGHSTLRDEVGFMSNDGRESKDEMELKDAFFHASMLEETGIDSLLKFDASVQAQEIDLAVVDSLRNFLFGPPGAGGLDLVAMNIQRGRDHGLSDYNTTRQAYGLDRVETFDQITGDVELQQKLASLYGTVDNIDLWVGLMAEDHQHDASVGELTGLIIADQFQRTRDGDRFFYKNVLTDSEVESIERSTLADLIERNTSVDGLQENVFFMQVELRGRVILASSIPPNTMPSEVREEEIRGVSGMAIELIDASGKLVDSTVSDQHGNYRFRALSETGDYQVRLSESGEAMDVLVAHGAERIRGLDFIVLALEKREAEAYLPAQQIDVQSSLLSDPSKVAGKTYDYIIAGGGLTGLTVAAKLTENPKIKVLVIEKGFYESNDGAIIEDPNAYGQIFGTTVDQNYLTVPLINNRTNNIKAGKGLGGSTLINGDSWTRPDKVQIDSWEKVFGMEGWNWDNMFEYMKKAEAARTPTAAQLAAGHSFNATCHGTNGTVQSGARDNGQPWSPIMKALMNTVSALGVPVQQDFLCGHPRGVSMIMNNLDENQVRVDAARAWLLPNYQRSNLEILTGQMVGKVLFKQTASGPQAVGVNFGTNKAVNFDVFAKHEVLLAAGSAISPLILEYSGIGLKSVLDQANVTQLLDLPVGINMQDQTTTTVSSRASSAGAGQGQAVFFANFTETFGDYAPQARDLLNTKLDQWAEETVARGGFHNVTALKVQYENYRNWLLDEDVAFAELFMDTEGKINFDLWDLIPFTRGSVHILSSDPYLWQFANDPKFFLNEFDLLGQAAASKLARDLTSQGAMKEYFAGETLPGYNLVQNATLSQWSDYVLQNFRPNWHAVSSCSMMSRELGGVVDATAKVYGTQGLRVIDGSIPPTQVSSHVMTIFYGMALKVADAILDDYAKSA
notes: 6His (in the pET21a vector behind the XhoI site); made in house; host or cells: E. coli BL21Star (DE3)
- Km [1]: 10620 ± 8250 µM
- kcat [1]: 0.000109 s⁻¹
- kcat/Km [1]: 0.01 ± 0.011 M⁻¹ s⁻¹

B2: RbMPO-LGKRGAGA-GOx chimera (Rhodopirellula baltica myeloperoxidase, SEQ ID NO: 10; linker SEQ ID NO: 5; Penicillium amagasakiens glucose oxidase, SEQ ID NO: … (protein)
chain: B1 chain with E715G, E718G, E720G
notes: as for B1
- Km ([2]; other: dimer/monomer): 66900 ± 24100 µM
- kcat ([2]; other: dimer/monomer): 0.00305 s⁻¹
- kcat/Km ([2]; other: dimer/monomer): 0.046 ± 0.025 M⁻¹ s⁻¹
- Km ([2]; other: excluded): 2270 ± 1300 µM
- kcat ([2]; other: excluded): 0.00133 s⁻¹
- kcat/Km ([2]; other: excluded): 0.586 ± 0.384 M⁻¹ s⁻¹
- Km ([2]; other: trimer): 2022 ± 644 µM
- kcat ([2]; other: trimer): 0.0022 s⁻¹
- kcat/Km ([2]; other: trimer): 1.09 ± 0.801 M⁻¹ s⁻¹

B3: RbMPO-GOx chimeras, all other chimeras (Penicillium amagasakiense) (protein)
chain: YLPAQQIDVQSSLLSDPSKVAGKTYDYIIAGGGLTGLTVAAKLTENPKIKVLVIEKGFYESNDGAIIEDPNAYGQIFGTTVDQNYLTVPLINNRTNNIKAGKGLGGSTLINGDSWTRPDKVQIDSWEKVFGMEGWNWDNMFEYMKKAEAARTPTAAQLAAGHSFNATCHGTNGTVQSGARDNGQPWSPIMKALMNTVSALGVPVQQDFLCGHPRGVSMIMNNLDENQVRVDAARAWLLPNYQRSNLEILTGQMVGKVLFKQTASGPQAVGVNFGTNKAVNFDVFAKHEVLLAAGSAISPLILEYSGIGLKSVLDQANVTQLLDLPVGINMQDQTTTTVSSRASSAGAGQGQAVFFANFTETFGDYAPQARDLLNTKLDQWAEETVARGGFHNVTALKVQYENYRNWLLDEDVAFAELFMDTEGKINFDLWDLIPFTRGSVHILSSDPYLWQFANDPKFFLNEFDLLGQAAASKLARDLTSQGAMKEYFAGETLPGYNLVQNATLSQWSDYVLQNFRPNWHAVSSCSMMSRELGGVVDATAKVYGTQGLRVIDGSIPPTQVSSHVMTIFYGMALKVADAILDDYAKSA
notes: pET21a, E. coli; heme and FAD reconstituted; GOx mature part (P81156 19-605)
- kcat/Km [3]: 1 M⁻¹ s⁻¹

B4: RbMPO-LEKREAEALEKREAEA-GOx chimera (Rhodopirellula baltica myeloperoxidase, SEQ ID NO: 10; linker SEQ ID NO: 6; Penicillium amagasakiens glucose oxidase, SEQ … (protein)
chain: MLFWSKRTRKHPGRKRRRLRSEQLESRQLLAADFGGYRHNIYDAEDVNDDGRVSAIDALLVINAMTSETSRDENVFTDVNGDGRRSALDALRVINRIERGDVFPIDTSGDEDLNTLLPEMPSEVRSIDGSGNNPNDHLWGSVGQRLIRMAPAAYGDGISTLAGANRPSAREVSNVLSAMNTSQVLNDRGLSAFVYVWGQFIDHDLGLTESDEHGEAIDISVPEGDLWFDPMGSGEAVIPMTRTPIADGTGTSVGNPAQQFNQITAFIDGSMVYGSDAATAERLRTFAGGRLAISDNGLLPMDESGMVIAGDVRASENVGLTAIQTLFVREHNRLADEIFAADPEATDEEIYQRARLVVASLIQSITYNEFLPALLGQRAMDSYRGYDASVNPGIANEFSTAAFRLGHSTLRDEVGFMSNDGRESKDEMELKDAFFHASMLEETGIDSLLKFDASVQAQEIDLAVVDSLRNFLFGPPGAGGLDLVAMNIQRGRDHGLSDYNTTRQAYGLDRVETFDQITGDVELQQKLASLYGTVDNIDLWVGLMAEDHQHDASVGELTGLIIADQFQRTRDGDRFFYKNVLTDSEVESIERSTLADLIERNTSVDGLQENVFFMQVELRGRVILASSIPPNTMPSEVREEEIRGVSGMAIELIDASGKLVDSTVSDQHGNYRFRALSETGDYQVRLSESGEAMDVLVAHGAERIRGLDFIVLALEKREAEALEKREAEAYLPAQQIDVQSSLLSDPSKVAGKTYDYIIAGGGLTGLTVAAKLTENPKIKVLVIEKGFYESNDGAIIEDPNAYGQIFGTTVDQNYLTVPLINNRTNNIKAGKGLGGSTLINGDSWTRPDKVQIDSWEKVFGMEGWNWDNMFEYMKKAEAARTPTAAQLAAGHSFNATCHGTNGTVQSGARDNGQPWSPIMKALMNTVSALGVPVQQDFLCGHPRGVSMIMNNLDENQVRVDAARAWLLPNYQRSNLEILTGQMVGKVLFKQTASGPQAVGVNFGTNKAVNFDVFAKHEVLLAAGSAISPLILEYSGIGLKSVLDQANVTQLLDLPVGINMQDQTTTTVSSRASSAGAGQGQAVFFANFTETFGDYAPQARDLLNTKLDQWAEETVARGGFHNVTALKVQYENYRNWLLDEDVAFAELFMDTEGKINFDLWDLIPFTRGSVHILSSDPYLWQFANDPKFFLNEFDLLGQAAASKLARDLTSQGAMKEYFAGETLPGYNLVQNATLSQWSDYVLQNFRPNWHAVSSCSMMSRELGGVVDATAKVYGTQGLRVIDGSIPPTQVSSHVMTIFYGMALKVADAILDDYAKSA
notes: as for B1
- Km ([4]; other: dimer/monomer): 2020 ± 1070 µM
- Km ([4]; other: excluded): 14170 ± 4620 µM
- kcat ([4]; other: excluded): 0.00015 s⁻¹
- kcat/Km ([4]; other: excluded): 0.01 ± 0.004 M⁻¹ s⁻¹
- Km ([4]; other: trimer): 770 ± 500 µM
- kcat ([4]; other: trimer): 0.00137 s⁻¹
- kcat/Km ([4]; other: trimer): 1.7 ± 1.34 M⁻¹ s⁻¹ and 1.77 M⁻¹ s⁻¹
